From publication PMC3814720, “Pro-inflammatory cytokines can act as intracellular modulators of commensal bacterial virulence”

Target: TNF-α (human, UniProt P01375 77-233)
Assay: EMSA; 5-20 uM TNF-α
Conditions: chain copies: 3; label: 32P 5'-end; blunt

Sequence of TNF-α (P01375 77-233): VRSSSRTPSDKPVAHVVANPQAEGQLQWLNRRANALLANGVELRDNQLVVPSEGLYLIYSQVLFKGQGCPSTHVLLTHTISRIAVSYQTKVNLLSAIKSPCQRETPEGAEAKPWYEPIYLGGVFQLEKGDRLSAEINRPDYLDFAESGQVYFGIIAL

B1: app internal region (dsDNA)
DNA 1: GTTTTTTACCAACAGGAGGCTCATTTGGCGACAGTGGCTCACCAATGTTTATCTATGATGCCCAAAAGCAAAAGTG
DNA 2: CACTTTTGCTTTTGGGCATCATAGATAAACATTGGTGAGCCACTGTCGCCAAATGAGCCTCCTGTTGGTAAAAAAC
binding result: no binding
